Test [1] has as its target T1, recombinant ILT2 (human, UniProt Q8NHL6 24-461).
T1 construct: also called LILRB1; LIR1
Description: binding ELISA, hILT2-Fc; positive control is GHI/75 by paragraph 227. In general terms: In an ELISA, binding on a coated surface is turned into a signal by an enzyme label.

In test [2] the target is T1, recombinant ILT2. Description: binding ELISA, hILT2-Fc, negative control.
The target of test [3] is T2, LILRA1 (UniProt O75019 17-461, limits assumed). Briefly: binding ELISA, column hLILRA1-His, negative control.
T2 sequence (O75019 17-461 limits assumed): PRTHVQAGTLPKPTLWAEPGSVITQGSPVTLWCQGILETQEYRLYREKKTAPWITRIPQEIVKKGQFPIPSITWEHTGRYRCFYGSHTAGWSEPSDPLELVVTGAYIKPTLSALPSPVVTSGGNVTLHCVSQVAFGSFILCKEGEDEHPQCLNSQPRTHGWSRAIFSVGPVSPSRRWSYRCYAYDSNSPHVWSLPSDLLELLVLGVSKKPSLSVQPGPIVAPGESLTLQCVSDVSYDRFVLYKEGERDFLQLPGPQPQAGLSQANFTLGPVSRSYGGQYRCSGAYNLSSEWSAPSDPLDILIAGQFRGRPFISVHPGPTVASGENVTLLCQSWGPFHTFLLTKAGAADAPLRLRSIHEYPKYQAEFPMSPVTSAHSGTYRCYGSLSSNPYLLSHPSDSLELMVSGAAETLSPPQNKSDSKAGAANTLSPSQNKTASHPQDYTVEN
Test [4] addresses T3, ILT6 (UniProt Q8N6C8 24-439). Description: binding ELISA, column hILT6-His, negative control.
Test [5] deals with T4, PIRB (UniProt P97484 25-642, limits assumed).
T4 sequence (looked up): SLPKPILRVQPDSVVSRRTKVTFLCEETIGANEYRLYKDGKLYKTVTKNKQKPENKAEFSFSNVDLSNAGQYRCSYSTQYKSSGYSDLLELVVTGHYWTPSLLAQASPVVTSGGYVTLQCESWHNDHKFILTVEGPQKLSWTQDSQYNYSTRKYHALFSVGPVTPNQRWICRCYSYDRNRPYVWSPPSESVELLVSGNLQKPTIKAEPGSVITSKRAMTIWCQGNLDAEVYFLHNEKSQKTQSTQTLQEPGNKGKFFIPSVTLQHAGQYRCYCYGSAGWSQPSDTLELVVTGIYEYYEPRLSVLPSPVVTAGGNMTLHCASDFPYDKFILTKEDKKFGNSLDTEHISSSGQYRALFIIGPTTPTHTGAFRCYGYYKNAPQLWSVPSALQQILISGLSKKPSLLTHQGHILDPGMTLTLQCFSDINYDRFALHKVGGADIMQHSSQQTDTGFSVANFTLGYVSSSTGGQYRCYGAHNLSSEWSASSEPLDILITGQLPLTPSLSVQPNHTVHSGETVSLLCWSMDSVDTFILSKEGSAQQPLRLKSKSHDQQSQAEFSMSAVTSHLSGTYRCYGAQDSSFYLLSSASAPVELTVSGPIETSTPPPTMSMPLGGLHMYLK
Description: binding ELISA, column PIRB, negative control.

The target in test [6] is T5, recombinant human ILT2-Fc conjugated with biotin (human, UniProt Q8NHL6 24-458, limits assumed, conjugated with biotin (sites not given)).
T5 construct: It is written here as ILT2 then Fc; also called ILT2-biotin; biotinylated ILT2; not shown: Fc portion of human IgG1
T5 sequence (Q8NHL6 24-458 limits assumed): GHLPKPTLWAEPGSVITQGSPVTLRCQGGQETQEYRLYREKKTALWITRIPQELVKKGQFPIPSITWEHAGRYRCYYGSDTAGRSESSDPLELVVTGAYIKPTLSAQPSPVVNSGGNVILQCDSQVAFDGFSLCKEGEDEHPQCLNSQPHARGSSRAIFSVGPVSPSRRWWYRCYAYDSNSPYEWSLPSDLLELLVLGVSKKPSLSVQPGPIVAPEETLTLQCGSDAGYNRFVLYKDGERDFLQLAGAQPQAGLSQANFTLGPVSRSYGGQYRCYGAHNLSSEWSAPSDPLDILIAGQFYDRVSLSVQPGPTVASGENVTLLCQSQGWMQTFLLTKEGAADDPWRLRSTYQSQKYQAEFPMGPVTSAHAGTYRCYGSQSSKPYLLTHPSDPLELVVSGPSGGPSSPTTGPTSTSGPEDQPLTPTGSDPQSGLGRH
Briefly: flow cytometry blocking assay: ILT2-biotin binding to cells expressing HLA-G. The procedure: (§1) Flow cytometry blocking assay—Recombinant human ILT2 protein fused with the Fc portion of human IgG1 at the N terminal was conjugated with biotin (Innova bioscience). A total of 5×10⁵ A375/HLA-G1 cells were incubated in a volume of 100 μL in the presence of anti-ILT2 clone #1 or isotype matched control mAb and ILT2-Fc conjugated with biotin (10 μg/mL) for 30 minutes at room temperature. After several washing steps, streptavidin-PE was added at a final concentration of 0.2 μg/mL and incubated for 30 min on ice followed by FACS analysis.
(§2) The ability of the generated anti-ILT2 antibodies to block the interaction between HLA-G and ILT2 was tested using four different assays. First, a blocking flow cytometry assay was performed. HLA-G transfected A375 cells were incubated with biotinylated ILT2 in the presence of the antibodies of the invention and a positive control antibody. The commercially available anti-ILT2 antibody GHI/75 (BioLegend, cat #333704) was used as the positive control. The binding of ILT2-biotin to the cells was determined using Streptavidin-PE by flow cytometry analysis (FIG. 8A). The percent of blocking was determined by normalizing to a negative control (ILT2 binding in the presence of control IgG). […] The percentage of blocking was calculated at various concentrations of antibody (FIG. 8C).
Background: Flow cytometry measures light scatter and fluorescence of single cells or particles in a stream.

For test [7], the target named is T6, ILT2/CD3z chimera on BW5417.3 cells (human; mouse, UniProt P24161 31-164, limits assumed).
T6 construct: domain: trans-membrane and cytoplasmic residues; Expressed on the surface of the mouse BW T cell line; also called BW-ILT2; BW/ILT2z
T6 sequence (P24161 other isoform, or with tags, fused parts or gaps mutant limits assumed): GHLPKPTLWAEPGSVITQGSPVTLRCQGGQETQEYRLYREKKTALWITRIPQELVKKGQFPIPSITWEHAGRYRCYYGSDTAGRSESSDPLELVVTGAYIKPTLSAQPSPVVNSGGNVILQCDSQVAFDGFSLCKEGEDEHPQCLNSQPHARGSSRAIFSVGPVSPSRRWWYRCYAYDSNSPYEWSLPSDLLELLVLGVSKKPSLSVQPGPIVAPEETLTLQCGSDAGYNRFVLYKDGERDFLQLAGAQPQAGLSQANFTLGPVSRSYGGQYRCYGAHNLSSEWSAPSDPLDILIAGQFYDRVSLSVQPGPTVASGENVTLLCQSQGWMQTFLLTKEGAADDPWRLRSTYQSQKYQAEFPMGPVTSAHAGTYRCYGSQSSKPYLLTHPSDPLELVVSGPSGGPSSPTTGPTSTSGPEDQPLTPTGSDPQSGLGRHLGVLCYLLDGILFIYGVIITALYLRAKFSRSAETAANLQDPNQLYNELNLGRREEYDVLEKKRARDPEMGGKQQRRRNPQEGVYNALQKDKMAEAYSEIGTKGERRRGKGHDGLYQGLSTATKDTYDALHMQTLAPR
Briefly: flow cytometry titration on BW cells transfected with human ILT2, y axis FAB.

The target in test [8] is T4, PIRB. Briefly: binding ELISA, column PIRB.
Test [9] addresses T1, recombinant ILT2. Description: competition ELISA on ILT2: biotinylated 15G8 at 1 µg/ml as the labelled competitor, unbiotinylated 15G8 varied. The procedure:
This raises the question of the epitope of GHI/75 and other commercial antibodies. Though the epitopes of these antibodies are not published a competition ELISA assay was performed to see if 15G8 and GHI/75 and HP-F1 could bind ILT2 at the same time. Biotinylated 15G8 antibody was used at a constant concentration (1 μg/ml) in an ILT2 binding ELISA. GHI/75 and HP-F1 were added in increasing concentrations and competition was assessed. Regardless of the amount of these two antibodies added, neither one competed with 15G8 for binding to ILT2 (FIG. 19). In contrast, when naked (unbiotinylated) 15G8 was added, the binding decreased in a dose dependent manner as expected. […] This makes 15G8 the first anti-ILT2 antibody ever identified to bind this epitope, to specifically block interaction with B2M and to be able to simultaneously activate/recruit T cells, NK cells and macrophages/dendritic cells against cancer.

Test [10] addresses T2, LILRA1. Briefly: binding ELISA, column hLILRA1-His.
Test [11] deals with T3, ILT6. Briefly: binding ELISA, column hILT6-His.
Test [12] addresses T5, recombinant human ILT2-Fc conjugated …. Briefly: flow cytometry blocking assay: ILT2-biotin binding to cells expressing HLA-G. The procedure: as §1, §2
The source holds these as a separate data set.

Like-named read-outs stand apart in the source and are kept apart here.

In general, EC50 (read off the curve) refers to the concentration needed to bring the measured effect to its halfway point.

T1 sequence (Q8NHL6 24-461 limits assumed): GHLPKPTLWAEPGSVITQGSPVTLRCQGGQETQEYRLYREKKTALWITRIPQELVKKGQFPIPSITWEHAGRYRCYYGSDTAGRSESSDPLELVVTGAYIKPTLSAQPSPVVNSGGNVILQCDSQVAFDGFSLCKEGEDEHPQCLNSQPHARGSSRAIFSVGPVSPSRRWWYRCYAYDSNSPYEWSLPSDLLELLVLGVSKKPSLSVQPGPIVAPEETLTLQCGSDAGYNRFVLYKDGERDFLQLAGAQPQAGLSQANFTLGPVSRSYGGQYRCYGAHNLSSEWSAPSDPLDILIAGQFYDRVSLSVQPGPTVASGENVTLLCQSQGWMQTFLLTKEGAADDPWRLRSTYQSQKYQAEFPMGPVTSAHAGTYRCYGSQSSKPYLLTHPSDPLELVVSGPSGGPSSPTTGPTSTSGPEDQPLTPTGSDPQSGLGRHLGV
T3 sequence (Q8N6C8 24-439 limits assumed): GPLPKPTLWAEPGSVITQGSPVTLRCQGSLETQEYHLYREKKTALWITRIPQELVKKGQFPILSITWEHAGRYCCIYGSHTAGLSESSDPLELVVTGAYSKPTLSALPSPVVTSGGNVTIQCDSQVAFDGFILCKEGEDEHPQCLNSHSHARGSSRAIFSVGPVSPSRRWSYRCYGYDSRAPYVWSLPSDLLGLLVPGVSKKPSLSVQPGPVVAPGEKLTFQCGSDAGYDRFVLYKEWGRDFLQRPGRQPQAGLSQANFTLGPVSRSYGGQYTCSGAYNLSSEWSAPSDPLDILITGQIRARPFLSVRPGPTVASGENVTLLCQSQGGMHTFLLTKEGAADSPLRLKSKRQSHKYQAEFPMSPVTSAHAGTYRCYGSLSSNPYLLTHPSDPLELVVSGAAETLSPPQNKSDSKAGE

“GHI/75 commercial mouse anti-human ILT2 antibody (BioLegend, Cat. No. 333704)”: in the test with recombinant ILT2 [1], the ELISA (OD) was 2.45 OD.

Negative: the ELISA (OD) in the test with recombinant ILT2 [2] was 0.05 OD; in the test with LILRA1 [3] it was 0.13 OD; with ILT6 [4], 0.071 OD; with PIRB [5], 0.0575 OD.

B1: chimeric 15G8 (antibody, V domains shown)
VH: DVQLQGSGPGLVKPSQSLSLTCSVTGYSITSGYYWNWIRQFPGNKLEWMGYISYDGSNNYNPSLKNRISITRDTSKNQFFLKLNSVTSEDTATYYCAHGYSYYYAMDCWGQGTSVTVSS
VL: DIQMTQTTSSLSASLGDRVTISCRTSQDISNYLNWYQQKPDGTVKLLISYTSRLHSGVPSRFSGSGSGTDYSLTISNLEQEDIATYFCQQGNTLPTFGSGTKLEIK
notes: Constant regions not described; also called chimeric murine 15G8
On to B1, for which the “IC50 (read off the curve)” value in test [6] was ~0.2 µg/mL. Further, in test [7], the “EC50 (read off the curve)” value was ~0.5 µg/mL.

B2: 15G8 (original hybridoma-derived murine anti-ILT2 antibody) (antibody, V domains shown)
VH: DVQLQGSGPGLVKPSQSLSLTCSVTGYSITSGYYWNWIRQFPGNKLEWMGYISYDGSNNYNPSLKNRISITRDTSKNQFFLKLNSVTSEDTATYYCAHGYSYYYAMDCWGQGTSVTVSS
VL: DIQMTQTTSSLSASLGDRVTISCRTSQDISNYLNWYQQKPDGTVKLLISYTSRLHSGVPSRFSGSGSGTDYSLTISNLEQEDIATYFCQQGNTLPTFGSGTKLEIK
notes: also called 15G8 antibody
On to B2, for which the binding result in the test with PIRB [8], in the test with LILRA1 [10] and in the test with ILT6 [11] was “no binding” throughout. The “IC50 (read off the curve)” value in the test with recombinant ILT2 [9] is ~3 µg/mL.

B3: humanized 15G8 (alanine variant) (antibody, V domains shown)
VH: DVQLQGSGPGLVKPSETLSLTCSVTGYSITSGYYWNWIRQFPGKKLEWMGYISYDGSNNYNPSLKNRITISRDTSKNQFSLKLNSVTAADTATYYCAHGYSYYYAMDAWGQGTSVTVSS
VL: DIQMTQSPSSLSASVGDRVTITCRTSQDISNYLNWYQQKPGKAVKLLISYTSRLHSGVPSRFSGSGSGTDYTLTISSLQPEDFATYYCQQGNTLPTFGQGTKLEIK
notes: also called 15G8 humanized antibody; humanized antibody 15G8
As for B3, the “IC50 (read off the curve)” value in test [6] is ~0.2 µg/mL; in test [12] it was ~0.3 µg/mL. In addition, the “EC50 (read off the curve)” value in [7] was ~0.5 µg/mL.
